Test results published in US20130136691A1, “GASTRIN […] PEPTIDE COMPOUNDS” (priority 2008, published 2013).

Columns and labels:
[1] = target: gastrin releasing peptide receptor (GRP-R) (human) (UniProt P30550); test: competition with 67Ga-AMBA, PC-3 cells
[2] = target: gastrin releasing peptide receptor (GRP-R) (human) (UniProt P30550); test: competition with 177Lu-AMBA, PC-3 cells
[3] = target: gastrin releasing peptide receptor (GRP-R) (human) (UniProt P30550); test: saturation binding, PC-3 cells, calculated from Bmax
[4] = target: gastrin releasing peptide receptor (GRP-R) (human) (UniProt P30550); test: saturation binding of carrier-added radioligand, PC-3 cells, 4 C
[5] = target: gastrin releasing peptide receptor (GRP-R) (human) (UniProt P30550); test: competition with 125I-universal ligand, receptor autoradiography on human tumour tissue
[6] = target: human neuromedin-B preferring receptor (NMB-R) (human) (UniProt P28336); test: as above
Chain of human neuromedin-B preferring receptor (NMB-R) (human) (P28336 whole entry): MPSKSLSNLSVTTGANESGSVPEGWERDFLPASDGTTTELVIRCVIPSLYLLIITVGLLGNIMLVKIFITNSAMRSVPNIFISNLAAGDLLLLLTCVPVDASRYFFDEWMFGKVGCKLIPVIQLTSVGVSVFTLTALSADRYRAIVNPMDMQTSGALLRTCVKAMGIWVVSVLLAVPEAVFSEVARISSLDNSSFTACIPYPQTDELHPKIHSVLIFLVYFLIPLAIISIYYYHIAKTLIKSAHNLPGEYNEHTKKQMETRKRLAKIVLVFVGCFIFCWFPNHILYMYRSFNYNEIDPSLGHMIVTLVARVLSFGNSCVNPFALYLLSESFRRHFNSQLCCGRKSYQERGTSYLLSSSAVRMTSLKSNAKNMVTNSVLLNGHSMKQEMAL

Chain of gastrin releasing peptide receptor (GRP-R) (human) (P30550 whole entry): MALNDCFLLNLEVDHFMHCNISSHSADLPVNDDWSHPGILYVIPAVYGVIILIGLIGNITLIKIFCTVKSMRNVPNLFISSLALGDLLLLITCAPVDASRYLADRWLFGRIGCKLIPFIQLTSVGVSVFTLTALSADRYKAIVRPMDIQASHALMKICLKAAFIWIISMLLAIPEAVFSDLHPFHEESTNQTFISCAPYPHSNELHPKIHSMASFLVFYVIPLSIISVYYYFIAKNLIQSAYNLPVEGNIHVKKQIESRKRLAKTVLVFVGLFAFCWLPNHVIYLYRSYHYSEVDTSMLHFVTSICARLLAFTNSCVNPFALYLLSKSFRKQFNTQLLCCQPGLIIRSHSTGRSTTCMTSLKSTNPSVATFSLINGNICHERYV

Ga-AMBA (non-radioactive gallium complex of AMBA) (peptide)
EC50 [1]: 1 nM
EC50 [2]: 1.15 nM

^67Ga-AMBA (peptide)
Receptors/cell (receptors/cell) [3]: 242000
Binding capacity (Bmax) (fmoles/1 × 10^6 cells) [4]: 402
Kd [4]: 0.46 nM

Universal ligand ([DTyr^6, βAla^11, Phe^13, Nle^14]-BBN(6-14)) (peptide)
IC50 [5]: 0.7 nM
IC50 [6]: 0.8 nM
